± gives the standard deviation of the averaged measurements.
Legend:
Saccharomyces cerevisiae [1] = experiment: protein stability index of tFT-peptide fusion (C-terminal peptide) (PSI (0-1 scale)); higher = more stable (slower turnover)
Method: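 MPS profiling in S. cerevisiae of the tFT-X12 degron library: putative degron peptides plus stable controls, 12 aa, fused to the C-terminus of a sfGFP-mCherry timer. Cells are FACS-sorted into 8 mCherry/sfGFP bins and deep-sequenced. PSI runs from 0 (unstable) to 1 (stable). Backgrounds are wild type, das1Δ and doa10Δ at 30 °C, and wild type, das1Δ, cdc34-1 and cdc53-1 at 37 °C; 2-3 technical replicates each.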

Saccharomyces cerevisiae [2] = experiment: as above; conditions: genetic background: wild type; temperature: 30 C
[3] = genetic background: cdc34-1, temperature: 37 C
[4] = genetic background: cdc53-1, temperature: 37 C
[5] = genetic background: das1 deletion, temperature: 30 C
[6] = genetic background: das1 deletion, temperature: 37 C
[7] = genetic background: doa10 deletion, temperature: 30 C
[8] = genetic background: wild type, temperature: 30 C
[9] = genetic background: wild type, temperature: 37 C
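Note: PSI is a weighted mean of sequencing reads over stability bins, variants kept only with over 10 reads, mCherry proximal and sfGFP distal, peptide attached via GGGS linker.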

Sequence	protein stability index (Saccharomyces cerevisiae [1]; [3])	protein stability index (Saccharomyces cerevisiae [1]; [4])	protein stability index (Saccharomyces cerevisiae [1]; [5])	protein stability index (Saccharomyces cerevisiae [1]; [6])	protein stability index (Saccharomyces cerevisiae [1]; [7])	protein stability index (Saccharomyces cerevisiae [1]; [8])	protein stability index (Saccharomyces cerevisiae [1]; [9])	protein stability index (Saccharomyces cerevisiae [2])
AAVQVCVLLLLL	0.366 ± 0.029	0.476 ± 0.032	0.341 ± 0.037	0.521 ± 0.014	0.302 ± 0.0072	0.337 ± 0.017	0.497 ± 0.014	0.414 ± 0.0057
ACSRKPIWVTWL	0.666 ± 0.057	0.747 ± 0.0079	0.648 ± 0.023	0.732 ± 0.016	0.259 ± 0.0057	0.276 ± 0.058	0.51 ± 0.031	0.35 ± 0.065
AFLLVLFCCVSC	0.241 ± 0.044	0.258 ± 0.0057	0.252 ± 0.023	0.3459 ± 0.0017	0.229 ± 0.0086	0.225 ± 0.023	0.303 ± 0.01	0.298 ± 0.018
AFLWSLFVFFRF	0.254 ± 0.056	0.183 ± 0.0084	0.31 ± 0.035	0.355 ± 0.0011	0.421 ± 0.017	0.269 ± 0.042	0.363 ± 0.018	0.393 ± 0.085
AFVVPLFLCCCG	0.1836 ± 0.0015	0.165 ± 0.013	0.212 ± 0.025	0.2768 ± 0.0025	0.184 ± 0.014	0.209 ± 0.014	0.235 ± 0.0042	0.255 ± 0.0048
AFYLCLYFMPVS	0.454 ± 0.026	0.548 ± 0.036	0.371 ± 0.028	0.503 ± 0.012	0.358 ± 0.032	0.367 ± 0.029	0.52 ± 0.0093	0.4375 ± 0.0033
AGAFRIVWWALR	0.652 ± 0.034	0.6935 ± 0.00096	0.578 ± 0.027	0.711 ± 0.0098	0.586 ± 0.02	0.578 ± 0.015	0.68 ± 0.014	0.528 ± 0.073
ALFLLWVVMHDV	0.2376 ± 0.0022	0.337 ± 0.021	0.247 ± 0.036	0.421 ± 0.018	0.195 ± 0.024	0.219 ± 0.035	0.397 ± 0.022	0.343 ± 0.011
ALLWEFVPCSVR	0.521 ± 0.032	0.52 ± 0.0073	0.354 ± 0.036	0.56 ± 0.0061	0.3287 ± 0.0015	0.375 ± 0.022	0.5347 ± 0.0023	0.453 ± 0.015
ALRGLWFPFSCL	0.66 ± 0.023	0.765 ± 0.0018	0.68 ± 0.024	0.8093 ± 0.0029	0.168 ± 0.032	0.193 ± 0.028	0.283 ± 0.01	0.393 ± 0.022
ALRLPPPPFSLY	0.677 ± 0.045	0.757 ± 0.025	0.561 ± 0.05	0.72 ± 0.035	0.174 ± 0.0065	0.237 ± 0.036	0.461 ± 0.023	
ALSGLARFIVCH	0.308 ± 0.0074	0.358 ± 0.019	0.272 ± 0.043	0.4268 ± 0.0034	0.2054 ± 0.0015	0.243 ± 0.031	0.392 ± 0.016	0.428 ± 0.026
ALVGEVLWFQLV	0.684 ± 0.039	0.7569 ± 0.006	0.651 ± 0.023	0.749 ± 0.013	0.317 ± 0.0039	0.357 ± 0.034	0.586 ± 0.029	0.471 ± 0.0021
APLLPPALALTC	0.533 ± 0.029	0.516 ± 0.038	0.389 ± 0.034	0.5268 ± 0.0035	0.3512 ± 0.00062	0.407 ± 0.028	0.484 ± 0.02	0.505 ± 0.025
APPSFPPLLLLS	0.664 ± 0.028	0.697 ± 0.038	0.6054 ± 0.002	0.71 ± 0.016	0.254 ± 0.018	0.286 ± 0.017	0.499 ± 0.034	
AQCRGGGLSGVG	0.572 ± 0.023	0.6409 ± 0.0041	0.566 ± 0.016	0.615 ± 0.014	0.57 ± 0.013	0.562 ± 0.011	0.603 ± 0.02	
ARGVAAAFVSGF	0.696 ± 0.043	0.7725 ± 0.0057	0.657 ± 0.03	0.746 ± 0.016	0.661 ± 0.023	0.653 ± 0.0078	0.725 ± 0.03	0.595 ± 0.23
ARRGHNCAAVFL	0.6953 ± 0.0068	0.7426 ± 0.0071	0.666 ± 0.026	0.7447 ± 0.0047	0.65 ± 0.022	0.663 ± 0.024	0.718 ± 0.0074	0.643 ± 0.3
ARTWVVLLICGH	0.4159 ± 0.0012	0.479 ± 0.025	0.355 ± 0.032	0.563 ± 0.04	0.28 ± 0.0056	0.328 ± 0.019	0.531 ± 0.045	0.423 ± 0.033
ASWRYMFPVTLG	0.576 ± 0.031	0.574 ± 0.045	0.555 ± 0.039	0.685 ± 0.031	0.383 ± 0.021	0.306 ± 0.039	0.4618 ± 0.0041	0.367 ± 0.032
AVCVVVMAVFVG	0.339 ± 0.056	0.4098 ± 0.0026	0.297 ± 0.028	0.417 ± 0.012	0.293 ± 0.022	0.3 ± 0.012	0.397 ± 0.021	0.3646 ± 0.0028
CASVCCFFAWIV	0.571 ± 0.028	0.623 ± 0.011	0.46 ± 0.046	0.5941 ± 0.0019	0.299 ± 0.017	0.323 ± 0.0068	0.4749 ± 0.00052	0.416 ± 0.06
CCVFFLLCLSLF	0.419 ± 0.016	0.44 ± 0.024	0.341 ± 0.01	0.469 ± 0.023	0.353 ± 0.012	0.313 ± 0.0084	0.4223 ± 0.0038	0.354 ± 0.044
CFFGFRAGLFLG	0.507 ± 0.0082	0.7205 ± 0.0047	0.593 ± 0.018	0.754 ± 0.052	0.176 ± 0.002	0.155 ± 0.0076	0.247 ± 0.072	0.214 ± 0.016
CFFVSLFFYIDC	0.207 ± 0.055	0.296 ± 0.0032	0.215 ± 0.021	0.392 ± 0.0061	0.191 ± 0.014	0.203 ± 0.042	0.35 ± 0.0022	0.323 ± 0.011
CFGSALLKCWLC	0.602 ± 0.037	0.726 ± 0.018	0.665 ± 0.013	0.7708 ± 0.0038	0.299 ± 0.002	0.303 ± 0.032	0.44 ± 0.0044	0.406 ± 0.035

From the supplement of paper PMC10724198
